We go through 116 sequences from the supplement of paper PMC10724198.

± gives the standard deviation of the averaged measurements.
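Note: PSI is a weighted mean of sequencing reads over stability bins, variants kept only with over 10 reads, mCherry proximal and sfGFP distal, peptide attached via GGGS linker.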

In the data set the test system is Saccharomyces cerevisiae. The data set can be described thus: protein stability index of tFT-peptide fusion (C-terminal peptide) (PSI (0-1 scale)); higher = more stable (slower turnover). The following applies: genetic background: wild type; temperature: 30 C.
Consider KKENKSKKIINR, for which the protein stability index came to 0.568 ± 0.028.
Sequence KKGKIKKFIIKK gave a protein stability index of 0.694 ± 0.17.
Then KKGPANEWKRGE, with 0.685 ± 0.081; and KKGRGEGTKKKR, with 0.602 ± 0.047.
Then KKGYKTVETRIS, with 0.69 ± 0.082; and KKINKEINKEKM, with 0.693 ± 0.022.
For the sequence KKITSIHKKRER, the protein stability index stood at 0.822 ± 0.12.
Then KKKDKKVKRRKV, with 0.769 ± 0.031; and KKKEGRMKQIYE, with 0.688 ± 0.0088; and KKKEKTSEEKKK, with 0.701 ± 0.029.
Then KKKGDKVGTKEQ, with 0.657 ± 0.048.
Then KKKIKIQPRTEN, with 0.7302 ± 0.0065.
For KKKKDKEIIHKE, the protein stability index came to 0.758 ± 0.12.
Then KKKKEEKQKGLK, with 0.69 ± 0.028; and KKKKEISNEAKQ, with 0.672 ± 0.093; and KKKKFQDQKIDE, with 0.629 ± 0.0068.
KKKKKEKNKIKI gave a protein stability index of 0.689 ± 0.14.
KKKKKGASEDNI registered a protein stability index of 0.786 ± 0.1.
Then KKKKKKKEKKAK, with 0.644 ± 0.042; and KKKKKKKEYKKK, with 0.752 ± 0.038; and KKKKKKKKKNNK, with 0.6851 ± 0.0035.
The value for KKKKKKKYKQRK was 0.706 ± 0.05; that for KKKKKKTNKKKE was 0.758 ± 0.065; that for KKKKKKVKNTKE was 0.698 ± 0.047.
Sequence KKKKNKKKNKKK had a protein stability index of 0.669 ± 0.011.
Then KKKKNKKKTKKT, with 0.784 ± 0.17; and KKKNKKKEKKKN, with 0.714 ± 0.049; and KKKNNEKLEEKK, with 0.687 ± 0.0098.
Then KKKNNKRKAKNK, with 0.6918 ± 0.0012; and KKKNQLSKVTKR, with 0.702 ± 0.031.
The value for KKKRNSYMKGNR was 0.681 ± 0.1.
KKLAPHPLTTRV registered a protein stability index of 0.642 ± 0.078.
Then KKLKQTRRKKEN, with 0.7296 ± 0.0068; and KKMSGNKLKNKN, with 0.643 ± 0.013.
Then KKNAFIYKRRPR, with 0.714 ± 0.04; and KKNHTQIKEVPR, with 0.6943 ± 0.00099; and KKNHYKAICNRR, with 0.619 ± 0.0075.
Then KKNICIKVENSY, with 0.676 ± 0.031.
KKNKEKGEREKK yielded a protein stability index of 0.615 ± 0.058.
Then KKNKGKGREVRI, with 0.67 ± 0.049.
The value for KKNKKKKEKKAK was 0.625 ± 0.025; that for KKNKQEKPKKPK was 0.698 ± 0.0062.
Then KKNSTKKKKESW, with 0.633 ± 0.029.
In turn, KKPHKTKGICYT registered a protein stability index of 0.673 ± 0.012.
The value for KKQHTIKKKKKR was 0.734 ± 0.028.
Then KKQKKKQNKQKT, with 0.731 ± 0.026; and KKQKPKVTSTKT, with 0.712 ± 0.037; and KKQRKRKMTERG, with 0.742 ± 0.11.
Then KKRKKDKRSQER, with 0.671 ± 0.068.
With KKRMDKIKDKKI, the protein stability index came to 0.713 ± 0.098.
The value for KKRQNIAKSEDT was 0.701 ± 0.025; that for KKRREKRTEKKQ was 0.661 ± 0.027.
Consider KKSERRGQKDYE, for which the protein stability index is 0.696 ± 0.028.
Sequence KKSGISSGPNDT registered a protein stability index of 0.689 ± 0.043.
The value for KKSLNTKIQTRE was 0.707 ± 0.029.
In the case of KKTDNGSYERGE, the protein stability index was 0.701 ± 0.018.
Then KKTKKGINVEER, with 0.662 ± 0.0097.
Then KKTKKKRTEPQP, with 0.724 ± 0.068.
Then KKTQKKKKLIPQ, with 0.7046 ± 0.0062.
Sequence KKVGHGLRERGQ displayed a protein stability index of 0.628 ± 0.061.
Then KKVKKKRSKKNT, with 0.66 ± 0.17; and KKYNNMRKHYVK, with 0.701 ± 0.02; and KLFWYLDCKLLY, with 0.579 ± 0.0073.
Sequence KLIVPCSPIRLS had a protein stability index of 0.6929 ± 0.0043.
Then KLKIDKKKNTFE, with 0.728 ± 0.047; and KLLLYNILSYWS, with 0.56105 ± 0.00055; and KMILVGMKKSVV, with 0.6502 ± 0.0026.
With KMNKTEYINGMT, the protein stability index was 0.652 ± 0.038.
The value for KNEEKIDKIEEQ was 0.72 ± 0.09.
On to KNFGHQGDVCRR, for which the protein stability index was 0.734 ± 0.037.
KNKKFKKDEKTR had a protein stability index of 0.773 ± 0.059.
Then KNKNKKTPARYR, with 0.692 ± 0.015.
The value for KNNKIKHIKVKN was 0.679 ± 0.017.
KNPKKMKKVTTK yielded a protein stability index of 0.694 ± 0.0091.
KNQRTLKSPQEV returned a protein stability index of 0.6387 ± 0.0055.
The value for KNQTDRRKKIIN was 0.648 ± 0.039.
Then KNVVSVRWERNE, with 0.635 ± 0.084; and KPKKKNPREKPV, with 0.669 ± 0.064.
The value for KPPPSISLSWLE was 0.716 ± 0.0024.
In the case of KPQFNLQYTVKI, the protein stability index came to 0.616 ± 0.025.
The value for KQHWIDDRNRIE was 0.716 ± 0.065; that for KQKKKSQTKTRK was 0.718 ± 0.034; that for KQKNKNNVKQPN was 0.693 ± 0.012.
The value for KQKRQLPRKNET was 0.639 ± 0.0092; that for KQLKKKKQIRRK was 0.728 ± 0.13.
Then KQNQKKREITAG, with 0.664 ± 0.055.
Turning to KREEKKTKRKKK, the protein stability index is 0.712 ± 0.048.
For KRGKRKEGGKAR, the protein stability index is 0.687 ± 0.065.
Then KRIRTKLKKTQK, with 0.695 ± 0.011; and KRKKEKNQPTKR, with 0.6972 ± 0.0044.
Then KRKKNKEENQTE, with 0.708 ± 0.016; and KRLEFLTHAVFK, with 0.7281 ± 0.0025; and KRSVSIESMTQA, with 0.699 ± 0.011.
The value for KSASIGTTLRNL was 0.699 ± 0.022; that for KSDKVYKQKPNT was 0.705 ± 0.11.
Take KSIVAQGRLKPR: the protein stability index amounted to 0.685 ± 0.026.
The value for KSKTYIKKTRKQ was 0.744 ± 0.031.
Then KSRRTTMINIRC, with 0.668 ± 0.016.
The value for KTALWQPNCKTD was 0.655 ± 0.011.
Regarding KTFGHQYVFIRK, the protein stability index worked out at 0.689 ± 0.013.
The value for KTKKRHKENRKE was 0.791 ± 0.067; that for KTKNEKHPKTTK was 0.766 ± 0.045; that for KTLALSAQHPGS was 0.645 ± 0.012.
Then KTNKDKKRTKTV, with 0.714 ± 0.2; and KTTTQRQEETAE, with 0.605 ± 0.033.
The value for KVAFKTNQHLGR was 0.661 ± 0.03; that for KVAGRLAATRSR was 0.716 ± 0.013; that for KVCGRIWWCPRA was 0.638 ± 0.03.
The sequence KVDYIKKKNSRE displayed a protein stability index of 0.7142 ± 0.0036.
The value for KVEVKRMKKEVK was 0.668 ± 0.014; that for KVFTQGPGRMLE was 0.758 ± 0.021; that for KVGGRGQGVKLG was 0.629 ± 0.034.
The value for KVIGSAPRAEGR was 0.656 ± 0.065; that for KVLGSNNMRRSS was 0.702 ± 0.018; that for KVMTEARTPALS was 0.702 ± 0.027.
Then KVRGMKIKGKLD, with 0.675 ± 0.054.
